Patent US20150071927A1 (UNIVERSITY OF HONG KONG, published 2015)

B1: anti-HER2/anti-IGF-IR bi-specific antibody (Bi-Ab) (bispecific antibody, human IgG1, kappa)
heavy 1: not shown
light 1: not shown
heavy 2: not shown
light 2: QIVLTQSPAIMSASPGEKVTITCSASSSVSYIHWFQQKPGTSPKVWIYGTSNLASGVPARFTGSGSGTSYSLTISRMEAEDAATYYCQQRSSYPFTFGSGTKLEIKRTVAAPSVFIFPPSDEQLKSGTASVVCLLNNFYPREAKVQWKVDNALQSGNSQESVTEQDSKDSTYSLSSTLTLSKADYEKHKVYACEVTHQGLSLPVTKSLNRREC
notes: also called anti-IGF-IR/anti-HER2 hybrid IgG; copies: 1 + 1 + 1 + 1
B2: m590 anti-IGF-IR mouse/human chimeric antibody (antibody, human IgG1, kappa, V domains shown)
VH: EVQLQQSGPELEQPGSSVKISCKASGYSFTAYYMHWVKQSHGKSLEWIGRINPDNGGNSYNQKFKGKAILTVDKSSNTAYMELRSLTSEDSAVYYCAKSTSYDYDGYWYFDVWGAGTTVTVSS
VL: QIVLTQSPAIMSASPGEKVTITCSASSSVSYIHWFQQKPGTSPKVWIYGTSNLASGVPARFTGSGSGTSYSLTISRMEAEDAATYYCQQRSSYPFTFGSGTKLEIKR
notes: also called human/mouse chimeric mAb m590

What was measured:
[1] = molecular target: T1, membrane-associated IGF-IR on SKOV-3 cells (human, UniProt P08069 31-936); experiment: flow cytometry on SKOV-3 cells
Experimental: (§1) MCF-7 or SKOV-3 cells were detached using enzyme-free cell-disassociation buffer (Invitrogen), washed twice with PBS, and incubated at 4° C. for 2 h with antibodies in fluorescence-activated cell sorting (FACS) buffer (1% FBS in PBS). Cell surface bound antibodies were detected using PE conjugated to anti-human Fc by incubation at 4° C. for 1 h followed by washing twice with FACS buffer and fixation with 2% paraformaldehyde in FACS buffer. The stained cells were analyzed with a BD flow cytometer and FlowJo software.

[2] = molecular target: T2, recombinant IGF-IR ectodomain (His-tagged) (human, UniProt P08069 31-935); experiment: indirect ELISA, IGF-IR ectodomain coated, biotinylated HER2 ectodomain detected with streptavidin-HRP
T2 construct: also called recombinant IGF-IR (coated); recombinant IGF-IR ectodomains
Experimental: Recombinant ectodomains of IGF-IR or HER2 ([…] in both cases) were coated on 96-well high-binding ELISA plates at 4° C. overnight. The plates were washed and blocked with 3% BSA in PBS at 37° C. for 2 h. Two-fold serially diluted mAb Herceptin or m590 were added to the wells and the bound mAbs were detected by HRP conjugated anti-human Fc as secondary antibody and TMB substrate. Optical density at 450 nm (OD450 nm) was measured after color development at RT for 30 min. In the case of Bi-Ab, recombinant IGF-IR ectodomains were coated on the plates. Following addition of 2-fold serially diluted Bi-Ab and incubation at RT for 2 h, plates were washed and biotinylated HER2 ectodomain (2 μg/ml) was added to each well. Bound HER2 ectodomains were detected by HRP conjugated streptavidin and TMB substrate.
Following addition of the anti-HER2/anti-IGF-IR antibodies to recombinant IGF-IR-coated plates biotinylated recombinant HER2 ectodomains were added. Bound HER2 ectodomains were detected by HRP conjugated streptavidin and TMB substrate.

[3] = molecular target: T1, membrane-associated IGF-IR on SKOV-3 …; experiment: flow cytometry on SKOV-3 cells, MFI against antibody concentration
Experimental: as §1

T1 sequence (P08069 31-936 limits assumed): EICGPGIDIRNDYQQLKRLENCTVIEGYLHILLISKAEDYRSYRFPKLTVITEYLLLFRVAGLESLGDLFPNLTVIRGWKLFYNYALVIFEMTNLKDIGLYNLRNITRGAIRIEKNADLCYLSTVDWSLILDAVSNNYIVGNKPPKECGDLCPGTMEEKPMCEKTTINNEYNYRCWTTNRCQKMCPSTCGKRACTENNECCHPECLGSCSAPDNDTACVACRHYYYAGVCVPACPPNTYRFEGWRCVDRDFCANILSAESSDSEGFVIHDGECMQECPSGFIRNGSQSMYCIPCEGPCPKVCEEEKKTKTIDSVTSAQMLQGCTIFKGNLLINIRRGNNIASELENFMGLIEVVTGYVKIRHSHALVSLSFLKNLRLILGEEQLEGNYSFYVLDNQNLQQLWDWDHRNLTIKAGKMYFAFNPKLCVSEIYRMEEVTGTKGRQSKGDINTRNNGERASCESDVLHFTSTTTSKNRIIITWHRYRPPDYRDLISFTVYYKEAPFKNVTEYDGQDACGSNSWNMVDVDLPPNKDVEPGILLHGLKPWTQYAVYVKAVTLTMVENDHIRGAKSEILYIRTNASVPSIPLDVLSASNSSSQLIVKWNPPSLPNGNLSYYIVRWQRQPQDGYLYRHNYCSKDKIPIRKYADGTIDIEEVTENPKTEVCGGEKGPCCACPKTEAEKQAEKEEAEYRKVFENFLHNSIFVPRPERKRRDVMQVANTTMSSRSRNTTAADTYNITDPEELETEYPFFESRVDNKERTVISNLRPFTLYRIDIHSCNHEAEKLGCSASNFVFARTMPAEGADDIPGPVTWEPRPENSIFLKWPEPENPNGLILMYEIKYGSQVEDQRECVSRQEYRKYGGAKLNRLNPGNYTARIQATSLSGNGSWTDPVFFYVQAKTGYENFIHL
T2 sequence (P08069 31-935): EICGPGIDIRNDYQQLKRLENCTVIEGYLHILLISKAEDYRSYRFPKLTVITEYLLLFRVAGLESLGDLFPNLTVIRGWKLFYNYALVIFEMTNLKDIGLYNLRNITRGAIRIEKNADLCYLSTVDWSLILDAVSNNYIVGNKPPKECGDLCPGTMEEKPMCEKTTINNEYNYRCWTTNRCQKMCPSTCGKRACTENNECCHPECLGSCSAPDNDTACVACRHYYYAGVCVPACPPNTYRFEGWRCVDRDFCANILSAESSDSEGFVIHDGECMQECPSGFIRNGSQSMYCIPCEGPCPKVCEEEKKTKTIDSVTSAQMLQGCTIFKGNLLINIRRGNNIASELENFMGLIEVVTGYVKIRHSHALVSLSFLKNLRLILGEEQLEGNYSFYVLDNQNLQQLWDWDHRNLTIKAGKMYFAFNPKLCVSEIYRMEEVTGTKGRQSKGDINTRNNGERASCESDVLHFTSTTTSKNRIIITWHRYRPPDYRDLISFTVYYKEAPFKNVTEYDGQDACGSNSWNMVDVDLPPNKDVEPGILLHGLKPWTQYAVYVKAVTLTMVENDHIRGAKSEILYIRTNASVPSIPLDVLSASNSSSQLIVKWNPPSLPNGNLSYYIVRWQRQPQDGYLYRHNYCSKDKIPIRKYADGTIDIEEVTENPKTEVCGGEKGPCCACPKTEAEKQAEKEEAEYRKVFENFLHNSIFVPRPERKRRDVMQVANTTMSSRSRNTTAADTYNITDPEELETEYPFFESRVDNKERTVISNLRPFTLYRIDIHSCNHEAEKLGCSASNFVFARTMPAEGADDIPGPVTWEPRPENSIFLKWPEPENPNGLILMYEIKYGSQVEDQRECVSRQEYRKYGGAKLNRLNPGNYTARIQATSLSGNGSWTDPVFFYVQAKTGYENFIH

Binder | binding result [1] | binding result [2] | binding result [3]
B1 | binds | binds | –
B2 | – | – | binds
